Test: yeast display, Sf9 membrane polyspecificity reagent, FACS + sequencing; frameworks hold sequencing errors
Procedure, shortened: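 Polyreactivity labels are assigned by the sorting gate from which each nanobody was recovered. The gates were low and high (top ~1%), set on anti-HA fluorescence for expression and streptavidin fluorescence for reagent binding. Before sorting, galactose-induced (36–48 hours) yeast display cells were stained for 1 hour at 4 °C with 10% biotinylated, detergent-solubilized Sf9 membrane reagent.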

Sequence | polyreactivity (PSR sort gate)
QVQLVESGGGLVQAGGSLRLSCAASGRTFYSYAMGWYRQAPGKERELVAAISRAGGTYYADSVKGRFTISRDNAKNTVYLQMNSLKPEDTAVYYCAARQAVYGLRSDFYYWGQGTQVTVSS | high polyreactivity
QVQLVESGGGLVQAGGSLRLSCAASGRTFYSYAMGWYRQAPGKERELVAAISSSSGRTYYADSVKGRFTISRDNAKNTVYLQMNSLKPEDTAVYYCNRAGGYRTTFYSWGQGTQVTVSS | high polyreactivity
QVQLVESGGGLVQAGGSLRLSCAASGRTFYSYAMGWYRQAPGKERELVASITSTGSTYYADSVKGRFTISRDNAKNTVYLQMNSLKPEDTAVYYCAARRQPRYSQRSTYYYWGQGTQVTVSS | high polyreactivity
QVQLVESGGGLVQAGGSLRLSCAASGRTFYSYAMGWYRQAPGKEWVLVAAISKRGTSTYYADSVKGRFTISRDNAKNTVYLQMNTLKPEDTAVYYCAAAYRGREVEYTSWGQGTQVTVSS | high polyreactivity
QVQLVESGGGLVQAGGSLRLSCAASGRTFYSYAMVWYRQAPGKERELVAAISAGGSTYYADSVKGRFTSSRDNAMTTLYLQMNSLKPEDTAVYYCADTYSYYYVRYHYWGQGTQVTVSS | high polyreactivity
QVQLVESGGGLVQAGGSLRLSCAASGRTFYSYVMGWYRQSPGKERELVAAINNSGGGTYYADSVKGRFTISRDNAKNTVYLQMNSLKPEDTAVYYCNAVGGYWFDYWGQGTQVTVSS | high polyreactivity
QVQLVESGGGLVQAGGSLRLSCAASGRTFYTNAMGWYRQAPGKERELVAAIDGGGTTYYADSVKGRFTISRDNAKNTVYLQMNSLKPEDTAVYYCNADVFGLKQTAFDYWGQGTQVTVSS | low polyreactivity
QVQLVESGGGLVQAGGSLRLSCAASGRTFYTNAMGWYRQAPGKERELVAVISRGGTTYYADSVKGRFTISRDNAKYTVYFQMNSLKPEDTAVYYCAKQRPSGDSSSQLGSWGQGTQVTVSS | low polyreactivity
QVQLVESGGGLVQAGGSLRLSCAASGRTFYTVYAMGWYRQAPGKERELVAAITKDGTTTYYADSVKGRFTISRDNAKNTVYLQMNSLKPEDTAVYYCNADVCQPWGGGEYNYWGQGTQVTVSS | high polyreactivity
QVQLVESGGGLVQAGGSLRLSCAASGRTFYVNAMGWYRQAPGKEREFVATITRTGGDTYYADSVKGRFTISRDNAKNTVYLQMNSHKPEDTAVFYCNAEGYTVKYWYSRYDYWGQGTQVTVSS | high polyreactivity
QVQLVESGGGLVQAGGSLRLSCAASGRTFYVNAMGWYRQAPGKERELVAAIRYSDGRTYYADSVKGRFTISRDNAKNTVYLQMNSLKPEDTAVYYCAVGSRSWPYDYWGQGTQVTVSS | high polyreactivity
QVQLVESGGGLVQAGGSLRLSCAASGRTFYVYAMGWYRHAPGKERELVASIRRSGGITYYADSVKGRFTISRDNAKNTVYLQMNSLKPEDTAVYYCNARRGPGRREYDYWGQGTQVTLSS | high polyreactivity
QVQLVESGGGLVQAGGSLRLSCAASGRTFYVYAMGWYRQAPGKERELVAAISQDDGGTYYADSVKGRFTISRDNAKNTVYLQMNSLKPEDTAVYYCAAKEWRYGYDYGYWGQGTQVTLSS | low polyreactivity
QVQLVESGGGLVQAGGSLRLSCAASGRTFYVYAMGWYRQAPGKERELVASISWIGDDTYYADSVKGRFTISRDNAKNTVYLQMNSLKPEDTAVYYCAVLVLGDYGYEYWGQGTQVTVSS | high polyreactivity
QVQLVESGGGLVQAGGSLRLSCAASGRTFYVYDMGWYRQAPGKERELVAAISTNYADSVKGRFTISRDNAKNTVYLQMNSLNPEDTAVYYCAADDIHYVIHAYYSSGVDYWGQGTQVTVSS | low polyreactivity
QVQLVESGGGLVQAGGSLRLSCAASGRTFYVYDMGWYRQAPRKEREFVATITARGGSTSYADSVKGRFTISRDNAKNTVYLQMNILKPEDTAVYYCNADIHVYPTRTRYYYWGQGTQVTVSS | low polyreactivity
QVQLVESGGGLVQAGGSLRLSCAASGRTFYVYTMGWYRQAPGKERELVAAITTGGSTNYADSVKGRFTISRDNAKNTVYLQMNSLKPEDTAVYYCAARVSTVFKRYYYWGQGTQVTVSS | high polyreactivity
QVQLVESGGGLVQAGGSLRLSCAASGRTFYVYTMGWYRQAPGKERELVAANTSGGSTNYADSVKGRFTISRDNAKNTVYLQMNSLKPEDTAVYYCAARVSTVFKRYYYWGQGTQVTVSS | high polyreactivity
QVQLVESGGGLVQAGGSLRLSCAASGRTFYWYAMGWYRQAPGKERELVAAISSGGSTYYADSVKGRFTISRDNAKNTVYLQMNSLKPEDTAVYYCAAVTPSGAHRSAYHPISDYWGQGTQVTVSS | low polyreactivity
QVQLVESGGGLVQAGGSLRLSCAASGRTFYYAMGWYRQAPGKERYADSVKGRVTISRDNAKNTVYLQMNSLKPEETAVYYCAAKVPEPPSLDESDYWGQGTQVTVSS | low polyreactivity
QVQLVESGGGLVQAGGSLRLSCAASGRTFYYNAKGWYRQAPGKERELVARITSSGGSTYYADSVKGRFTISRDTSKNTVFLQMNSLKPEDTAVYYCAAGRSRYLWFGRDFDYWGQGTQVTVSS | low polyreactivity
QVQLVESGGGLVQAGGSLRLSCAASGRTFYYNGMGWYRQAPGKERELVATITNGGSTNYADSVKGRFTISRDNAKITVYLQMNSLKPEETAVYYCAKTLASDCYDYWGQGTQVTVSS | low polyreactivity

Sequence | polyreactivity (PSR sort gate)
QVQLVESGGGLVQAGGSLRLSCAASGRTFYYYAMGWYRQAPGKERELVAAISRSGGITYYADSVKGRFTISRDNAKNTVYLQMNSLKPEDTAVYYCAADAWFSLRYAPRSYAYGYWGQGTQVTVSS | low polyreactivity
QVQLVESGGGLVQAGGSLRLSCAASGRTFYYYAMGWYRQAPGKERELVAAITGSGANTYYADSVKGRFTISRDNAKNTVYLQMKSLKPEDTAVYYCNKYRTLRNGWGSGYYYWGQGTQVTVSS | high polyreactivity
QVQLVESGGGLVQAGGSLRLSCAASGRTFYYYAMGWYRQAPGKERELVAGINSGGSTNYADSVKGRFTISRDNAKNTVYLQMNSLKPEDTAVYYCAVEDLVSEGWGWYKEMDYWGQGTQVTVSS | low polyreactivity
QVQLVESGGGLVQAGGSLRLSCAASGRTFYYYAMGWYRQAPGKERELVARIRSTGRTSYADSVKGRFTISRDNAKNTVYLQMNRLKPEDTAVYYCAAKYSSTAWSRRKFDYWGQGTQVTVSS | high polyreactivity
QVQLVESGGGLVQAGGSLRLSCAASGRTFYYYAMGWYRQAPGKERELVASISRRGGSTYYADSVKGRFTISRDNAKNTVYLQMNSLKPEDTAVYYCAASHYHGYSLGYDYWGQGTQVTVSS | high polyreactivity
QVQLVESGGGLVQAGGSLRLSCAASGRTFYYYAMGWYRQAPGKERELVATITSSGGSTYYADSVKGRFTISRDNAKNTVYLQINSLIPEDTAVYYCARTYTYKGGNTHSRWYYYWGQGTHVTVSS | high polyreactivity
QVQLVESGGGLVQAGGSLRLSCAASGRTFYYYAMGWYRQAPGKEWELVAAIRGGGGSTYADSVKGRFTISRDNAKNTVYLQMNSLKPEDTAVYYCNVVRTGRYPGFLTFDYWGQGTQVTVSS | high polyreactivity
QVQLVESGGGLVQAGGSLRLSCAASGRTFYYYAMGWYRQAPGTERELLAAISWSVGRTYYADSVKGRFTISRDNAKNTVYLQMNSLKPEDTAVYFCNAEPPRGYTVSSGREMVYWGQGTQVTGSS | low polyreactivity
QVQLVESGGGLVQAGGSLRLSCAASGRTFYYYARGWYRQAPGKERELVAAISSRGGSTYYADSVKGRFTISRDNAKNTVYLQMNSLKPEDTAVYYCAAERYFVLYRYYSYAYYYWGQGTQVTVSS | high polyreactivity
QVQLVESGGGLVQAGGSLRLSCAASGRTFYYYSMGWYIQAPGKEREFVAAISYRGGSTYYADSVKGRFTITRDNAKNTVYFQMNSLNPEDTAVYYCAAGLVYLFISHNDYWGQGTQVTVSS | low polyreactivity
QVQLVESGGGLVQAGGSLRLSCAASGRTFYYYTRGWYRQAPGKERELVAAISRRGGRTYYADSVKGRFTISRDNAKNTVYLQMNSLKPEDTAVYNCAKETPHCPGLGGYDYWGQGTQVTVSS | high polyreactivity
QVQLVESGGGLVQAGGSLRLSCAASGRTFYYYVKGWDRQAPGKERELVAAITIRGGSTYYADSVKGRFTNSRDNAKNTVYLQMNSLKPEDTAVYYCNARGGSSTYGNYYWGQGTQVTVSS | low polyreactivity
QVQLVESGGGLVQAGGSLRLSCAASGRTFYYYVMGWYIQAPGKERELVAAITLRGGSTYYADSVKGRFTISRDNAKNTVYLQMNSLKPEDTAVYYCNARGGSSTYGNYYWGQGTQVTVSS | low polyreactivity
QVQLVESGGGLVQAGGSLRLSCAASGRTIDHYAMGWYRQAPGKERELVAAISTTGGSTYYADSVKGRFTISRDNAKNTVYLQMNSLKPEDTAVYYCAAQLGWWGSGYWGQGTQVTVSS | high polyreactivity
QVQLVESGGGLVQAGGSLRLSCAASGRTIDSYAMGRNRQAPGKERELVAAISWGGGSTYYADSVKGRFTISRDNAKNTVYLQMNSLKPEDTAVYYCAARWNYTEFDYWGQGTQVTVSS | low polyreactivity
QVQLVESGGGLVQAGGSLRLSCAASGRTIGLNGMGWYRQAPGKERELVAGISLSGGSTNYADSVKGRFTISRDNAKNTVYLQMNSLKPEDTAVYYCAADFVYYVVNDFGWSYAYEYWGQGTQVTVSS | low polyreactivity
QVQLVESGGGLVQAGGSLRLSCAASGRTIGVYAMGWYRQAPGKERELVAGITTSGDSTYYADSVKGRFTISRDNAKNTVYLQMNSLKPEDTAVYYCNADVLFFYTPTSEYDYWGQGTQVTVSS | low polyreactivity
QVQLVESGGGLVQAGGSLRLSCAASGRTIGWYTMGWYRQERGKERELVAAISGRGGSTTYADSVKGRFTISRDNAKNTVYLQMNSLKPEDTAVYYCAKRRVRGTTRRYGYWGQGTQVTVSS | high polyreactivity
QVQLVESGGGLVQAGGSLRLSCAASGRTIGYYAMGWYRQAPGKERELVAAITWSGGNTYYADSVKGRFTISRDNAKNTVYLQMNSLKPEDTAVYYCNALYLWGMDYWGQGTQVTVSS | low polyreactivity
QVQLVESGGGLVQAGGSLRLSCAASGRTILGNAMGWYRQAPGKEREFVATISKTGGSTYYADSVKGRFTISRDNAKNTVYLQMISLKPEDTAVYYCAVEIVSYVYGWLVDYDYWGQGTQVTVSS | low polyreactivity
QVQLVESGGGLVQAGGSLRLSCAASGRTIPIYAMGWYRQAPGKERELVAAITRGGRTNYADSVKGRFTISRDNAKNTVYLQMNSLKPEDTAVYYCAARTYGTYLYAEYDYWGQGTQVTVSS | high polyreactivity
